# Data as given in IntAct's records for PubMed 19898420.
# B1: Abscisic acid receptor PYR1 (Arabidopsis thaliana (Mouse-ear cress)), O49686 (parent)
# chain: MPSELTPEERSELKNSIAEFHTYQLDPGSCSSLHAQRIHAPPELVWSIVRRFDKPQTYKHFIKSCSVEQNFEMRVGCTRDVIVISGLPANTSTERLDILDDERRVTGFSIIGGEHRLTNYKSVTTVHRFEKENRIWTVVLESYVVDMPEGNSEDDTRMFADTVVKLNLQKLATVAEAMARNSGDGSGSQVT
# B2: Abscisic acid receptor PYL2 (Arabidopsis thaliana (Mouse-ear cress)), O80992 (parent)
# chain: MSSSPAVKGLTDEEQKTLEPVIKTYHQFEPDPTTCTSLITQRIHAPASVVWPLIRRFDNPERYKHFVKRCRLISGDGDVGSVREVTVISGLPASTSTERLEFVDDDHRVLSFRVVGGEHRLKNYKSVTSVNEFLNQDSGKVYTVVLESYTVDIPEGNTEEDTKMFVDTVVKLNLQKLGVAATSAPMHDDE
# Variants of: B1
# Settings: with HAB1, Q9CAJ0
row,effect of a mutation on the interaction,Variant
1,disrupting interaction,H115A

# Variants of: B2
# Settings: with HAB1, Q9CAJ0
row,effect of a mutation on the interaction,Variant
1,decreasing interaction,H119A
2,decreasing interaction,R120A
